Reference: the supplement of paper PMC7877785
± gives the uncertainty stated by the source.

Experiment: self-splicing fitness, log relative to wild type (ln ratio); higher = more splicing; Tetrahymena group I intron in knt gene, E. coli kanamycin selection, DiMSum; sequences stand for … in CUCUCU…GGAGGGAAAAGUUAUCAGGCAUGCACCUGGUAGCUAGUCUUUAAACCAAUAGAUUGCAUCGGUUUAAAAGGCAAGACCGUCAAAUUGCGGGAAAGGGGUCAACAGCCGUUCAGUACCAAGUCUCAGGGGAAACUUUGAGAUGGCCUUGCAAAGGGUAUGGUAAUAAGCUGACGGACAUGGUCCUAACCACGCAGCCAAGUCCUAAGUCAACAGAUCUUCUGUUGAUAUGGAUGCAGUUCACAGACUAAAUGUCGGUCGGGGAAGAUGUAUUCUUCUCAUAAGAUAUAGUCGGACCUCUCCUUAAUGGGAGCUAGCGGAUGAAGUGAUGCAACACUGGAGCCGCUGGGAACUAAUUUGUAUGCGAAAGUAUAUUGAUUAGUUUUGGAGUACUCGUGGUCG
Outline: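 Library with all eight P1ex-region intron nucleotides randomised, intron inside the knt kanamycin-resistance gene on pET-22b(+), in E. coli BL21(DE3). Cells grew overnight at 37°C or 30°C on LB agar with or without 25 μg/mL kanamycin (plus 100 μg/mL carbenicillin, 50 μM IPTG, 0.2% rhamnose), in six replicate transformations. Pooled colonies were amplicon-sequenced on Illumina HiSeq 2500. DiMSum fitness is the error-weighted combination of wild-type-normalised replicate fold changes, kanamycin versus none.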

## UGGUAGCAAUAUUACGUCCG
30 °C
  self-splicing fitness (ln): -0.727 ± 0.15
37 °C
  self-splicing fitness (ln): -0.449 ± 0.24

## UGUAAGCAAUAUUACGAACA
30 °C
  self-splicing fitness (ln): -0.358 ± 0.14
37 °C
  self-splicing fitness (ln): 0.219 ± 0.17

## UGUAAGCAAUAUUACGAAGA
37 °C
  self-splicing fitness (ln): -0.905 ± 0.37

## UGUAAGCAAUAUUACGACAA
30 °C
  self-splicing fitness (ln): -0.378 ± 0.16
37 °C
  self-splicing fitness (ln): -0.666 ± 0.14

## UGUAAGCAAUAUUACGACAC
30 °C
  self-splicing fitness (ln): -2.51 ± 0.41

## UGUAAGCAAUAUUACGACGG
30 °C
  self-splicing fitness (ln): -1.46 ± 0.11
37 °C
  self-splicing fitness (ln): -0.11 ± 0.12

## UGUAAGCAAUAUUACGACUC
30 °C
  self-splicing fitness (ln): -1.52 ± 0.19
37 °C
  self-splicing fitness (ln): -0.632 ± 0.25

## UGUAAGCAAUAUUACGAGUU
30 °C
  self-splicing fitness (ln): -2.78 ± 0.13
37 °C
  self-splicing fitness (ln): -2.69 ± 0.23

## UGUAAGCAAUAUUACGAUAU
30 °C
  self-splicing fitness (ln): -3.01 ± 0.3
37 °C
  self-splicing fitness (ln): -0.86 ± 0.24

## UGUAAGCAAUAUUACGAUUG
30 °C
  self-splicing fitness (ln): -1 ± 0.081
37 °C
  self-splicing fitness (ln): -0.574 ± 0.097

## UGUAAGCAAUAUUACGCAAU
30 °C
  self-splicing fitness (ln): -3.44 ± 0.18
37 °C
  self-splicing fitness (ln): -3.36 ± 0.2

## UGUAAGCAAUAUUACGCAUG
30 °C
  self-splicing fitness (ln): -1.95 ± 0.099
37 °C
  self-splicing fitness (ln): 0.308 ± 0.14

## UGUAAGCAAUAUUACGCCCU
30 °C
  self-splicing fitness (ln): -0.237 ± 0.19
37 °C
  self-splicing fitness (ln): -0.575 ± 0.24

## UGUAAGCAAUAUUACGCCUC
30 °C
  self-splicing fitness (ln): -3.28 ± 0.32
37 °C
  self-splicing fitness (ln): -2.25 ± 0.24

## UGUAAGCAAUAUUACGCCUU
30 °C
  self-splicing fitness (ln): -1.69 ± 0.35
37 °C
  self-splicing fitness (ln): -1.5 ± 0.43

## UGUAAGCAAUAUUACGCGAC
30 °C
  self-splicing fitness (ln): -2.37 ± 0.27
37 °C
  self-splicing fitness (ln): -2.4 ± 0.36

## UGUAAGCAAUAUUACGCGCG
30 °C
  self-splicing fitness (ln): -0.498 ± 0.11
37 °C
  self-splicing fitness (ln): -0.329 ± 0.15

## UGUAAGCAAUAUUACGCUUU
30 °C
  self-splicing fitness (ln): -3.09 ± 0.26
37 °C
  self-splicing fitness (ln): -2.72 ± 0.27

## UGUAAGCAAUAUUACGGAAA
30 °C
  self-splicing fitness (ln): -1.83 ± 0.17
37 °C
  self-splicing fitness (ln): -1.67 ± 0.2

## UGUAAGCAAUAUUACGGAAC
30 °C
  self-splicing fitness (ln): -2.78 ± 0.27
37 °C
  self-splicing fitness (ln): -1.77 ± 0.26

## UGUAAGCAAUAUUACGGAGG
30 °C
  self-splicing fitness (ln): -3.23 ± 0.21
37 °C
  self-splicing fitness (ln): -3.5 ± 0.33

## UGUAAGCAAUAUUACGGCGA
30 °C
  self-splicing fitness (ln): -0.0897 ± 0.085
37 °C
  self-splicing fitness (ln): -0.0127 ± 0.11

## UGUAAGCAAUAUUACGGGUC
30 °C
  self-splicing fitness (ln): -3.01 ± 0.41

## UGUAAGCAAUAUUACGGGUU
30 °C
  self-splicing fitness (ln): -3.86 ± 0.27
37 °C
  self-splicing fitness (ln): -2 ± 0.2

## UGUAAGCAAUAUUACGUAAU
30 °C
  self-splicing fitness (ln): -2.84 ± 0.095
37 °C
  self-splicing fitness (ln): -1.33 ± 0.12

## UGUAAGCAAUAUUACGUAGG
30 °C
  self-splicing fitness (ln): -1.71 ± 0.15
37 °C
  self-splicing fitness (ln): -0.712 ± 0.2

## UGUAAGCAAUAUUACGUCAC
30 °C
  self-splicing fitness (ln): -2.9 ± 0.19
37 °C
  self-splicing fitness (ln): -2.28 ± 0.25

## UGUAAGCAAUAUUACGUCAU
30 °C
  self-splicing fitness (ln): -2.39 ± 0.16
37 °C
  self-splicing fitness (ln): -1.28 ± 0.19

## UGUAAGCAAUAUUACGUCGG
30 °C
  self-splicing fitness (ln): -1.67 ± 0.13
37 °C
  self-splicing fitness (ln): -1.95 ± 0.14

## UGUAAGCAAUAUUACGUGAA
30 °C
  self-splicing fitness (ln): -1.8 ± 0.16
37 °C
  self-splicing fitness (ln): 0.0061 ± 0.14

## UGUAAGCAAUAUUACGUGCU
30 °C
  self-splicing fitness (ln): -1.48 ± 0.13
37 °C
  self-splicing fitness (ln): -0.148 ± 0.16

## UGUAAGCAAUAUUACGUUAU
30 °C
  self-splicing fitness (ln): -3.54 ± 0.22
37 °C
  self-splicing fitness (ln): -2.73 ± 0.26

## UGUCAGCAAUAUUACGACGG
30 °C
  self-splicing fitness (ln): -1.06 ± 0.076
37 °C
  self-splicing fitness (ln): -0.98 ± 0.092

## UGUCAGCAAUAUUACGAGAA
30 °C
  self-splicing fitness (ln): -1.43 ± 0.27
37 °C
  self-splicing fitness (ln): -1.48 ± 0.22

## UGUCAGCAAUAUUACGAUCC
30 °C
  self-splicing fitness (ln): -1.48 ± 0.086
37 °C
  self-splicing fitness (ln): -0.717 ± 0.089

## UGUCAGCAAUAUUACGAUUU
30 °C
  self-splicing fitness (ln): -0.0817 ± 0.061
37 °C
  self-splicing fitness (ln): 0.461 ± 0.082

## UGUCAGCAAUAUUACGCUAG
30 °C
  self-splicing fitness (ln): -0.41 ± 0.061
37 °C
  self-splicing fitness (ln): -0.214 ± 0.077

## UGUCAGCAAUAUUACGCUCA
30 °C
  self-splicing fitness (ln): 0.0629 ± 0.11
37 °C
  self-splicing fitness (ln): -0.236 ± 0.11

## UGUCAGCAAUAUUACGCUCG
30 °C
  self-splicing fitness (ln): -0.552 ± 0.16
37 °C
  self-splicing fitness (ln): 0.987 ± 0.32

## UGUCAGCAAUAUUACGGCCA
30 °C
  self-splicing fitness (ln): -0.139 ± 0.11
37 °C
  self-splicing fitness (ln): -0.162 ± 0.12

## UGUCAGCAAUAUUACGGGGA
30 °C
  self-splicing fitness (ln): -1.32 ± 0.061
37 °C
  self-splicing fitness (ln): -0.476 ± 0.07

## UGUCAGCAAUAUUACGUCAC
30 °C
  self-splicing fitness (ln): -3.9 ± 0.39
37 °C
  self-splicing fitness (ln): -3.29 ± 0.37

## UGUCAGCAAUAUUACGUCAU
30 °C
  self-splicing fitness (ln): -1.79 ± 0.1
37 °C
  self-splicing fitness (ln): -1.38 ± 0.14

## UGUCAGCAAUAUUACGUCGU
30 °C
  self-splicing fitness (ln): -1.49 ± 0.1
37 °C
  self-splicing fitness (ln): -0.759 ± 0.11

## UGUCAGCAAUAUUACGUGGC
30 °C
  self-splicing fitness (ln): -4.53 ± 0.31
37 °C
  self-splicing fitness (ln): -3.13 ± 0.31

## UGUCAGCAAUAUUACGUUAA
30 °C
  self-splicing fitness (ln): -0.609 ± 0.1
37 °C
  self-splicing fitness (ln): -0.411 ± 0.11

## UGUCAGCAAUAUUACGUUAC
30 °C
  self-splicing fitness (ln): -3.4 ± 0.27
37 °C
  self-splicing fitness (ln): -2.77 ± 0.43

## UGUGAGCAAUAUUACGAAAG
30 °C
  self-splicing fitness (ln): -2.98 ± 0.18
37 °C
  self-splicing fitness (ln): -2.69 ± 0.27
